Source: US7199217B2, “Amidated glucagon-like peptide-1” (Eli Lilly and Company, priority 2000, dated 2007)

Tests used:
[1] = Aggregation time in solution, turbidity at 350 nm while stirred; assay type: physicochemical; conditions: 37° C.; 0.3 mg/mL in 10 mM citrate, 10 mM phosphate, 150 mM NaCl, pH 7.4 to 7.5, stirred
Procedure: The peptides in solution were stirred at elevated temperature in a suitable buffer while recording turbidity at 350 nm as a function of time. Time to the onset of aggregation was measured to quantify the potential of each GLP-1 molecule to aggregate under these stressed conditions.
In general, the peptides in solution were stirred at elevated temperature in a suitable buffer while recording turbidity at 350 nm as a function of time. Time to the onset of aggregation was measured to quantify the potential of a given GLP molecule to aggregate under these stressed conditions.
The GLP-1 peptides were first dissolved under alkaline conditions (pH 10.5) for 30 minutes to dissolve any pre-aggregated material. The solution was then adjusted to pH 7.4 and filtered. Specifically, 4 mg of a lyophilized GLP-1 peptide was dissolved in 3 mL of 10 mM phosphate/10 mM citrate. The pH was adjusted to 10.0–10.5 and held for 30 minutes. The solution was adjusted with HCl to pH 7.4 and filtered through a suitable filter, for example a Millex® GV syringe filter (Millipore Corporation, Bedford, Mass.). This solution was then diluted to a final sample containing 0.3 mg/mL protein in 10 mM citrate, 10 mM phosphate, 150 mM NaCl, and adjusted to pH 7.4 to 7.5. […] Every five minutes the turbidity of the solution was measured at 350 nm on an AVIV Model 14DS UV-VIS spectrophotometer (Lakewood, N.J.). […]

[2] = molecular target: T1, human GLP-1 receptor (Homo sapiens, UniProt P43220); experiment: In vitro activity, HEK-293 Aurora CRE-BLAM cells, β-lactamase reporter; assay type: cell-based; conditions: comparison with the acid form; test not specified
T1 construct: expressed in transfected cells; host or cells: HEK-293 Aurora CRE-BLAM cells
T1 sequence (P43220 24-463): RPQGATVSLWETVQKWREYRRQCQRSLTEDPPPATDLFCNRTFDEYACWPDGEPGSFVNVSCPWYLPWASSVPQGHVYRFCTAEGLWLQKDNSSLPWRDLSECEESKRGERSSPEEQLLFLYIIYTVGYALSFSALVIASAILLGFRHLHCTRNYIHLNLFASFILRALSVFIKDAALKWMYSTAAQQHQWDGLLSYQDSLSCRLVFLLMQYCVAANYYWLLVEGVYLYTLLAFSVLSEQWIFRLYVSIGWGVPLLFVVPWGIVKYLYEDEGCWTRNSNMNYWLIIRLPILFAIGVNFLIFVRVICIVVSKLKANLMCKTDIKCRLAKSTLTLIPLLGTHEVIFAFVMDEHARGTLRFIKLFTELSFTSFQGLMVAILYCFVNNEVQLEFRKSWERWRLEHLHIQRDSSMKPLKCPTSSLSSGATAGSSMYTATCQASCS
Description: The day after seeding, the medium is replaced with plasma free medium.

Row | Potency compared to the acid form Val^8-GLP-1(7–37)OH (in words) [2] | Substance | Time to onset of aggregation [1]
1 |  | Val^8-GLP-1(7–37)NH2 (HXEGTFTSDVSSYLEXQAAKXFIXWLVKGRX; C-terminal amide) [GLP-1(7–37)OH wherein Ala at position 8 has been substituted with Val and Gly at position 37 has been amidated] | approximately 23 hours
2 | slightly less potent than the acid form | Val^8-GLP-1(7–36)NH2 | 
